According to paper PMC5903968:
pKi: −log10 of the molar value.

Target: MMP-2 catalytic domain (MMP-2CAT) (UniProt P08253)
Assay: enzyme inhibition assay

MMP-2 catalytic domain (MMP-2CAT), sequence (P08253 30-660): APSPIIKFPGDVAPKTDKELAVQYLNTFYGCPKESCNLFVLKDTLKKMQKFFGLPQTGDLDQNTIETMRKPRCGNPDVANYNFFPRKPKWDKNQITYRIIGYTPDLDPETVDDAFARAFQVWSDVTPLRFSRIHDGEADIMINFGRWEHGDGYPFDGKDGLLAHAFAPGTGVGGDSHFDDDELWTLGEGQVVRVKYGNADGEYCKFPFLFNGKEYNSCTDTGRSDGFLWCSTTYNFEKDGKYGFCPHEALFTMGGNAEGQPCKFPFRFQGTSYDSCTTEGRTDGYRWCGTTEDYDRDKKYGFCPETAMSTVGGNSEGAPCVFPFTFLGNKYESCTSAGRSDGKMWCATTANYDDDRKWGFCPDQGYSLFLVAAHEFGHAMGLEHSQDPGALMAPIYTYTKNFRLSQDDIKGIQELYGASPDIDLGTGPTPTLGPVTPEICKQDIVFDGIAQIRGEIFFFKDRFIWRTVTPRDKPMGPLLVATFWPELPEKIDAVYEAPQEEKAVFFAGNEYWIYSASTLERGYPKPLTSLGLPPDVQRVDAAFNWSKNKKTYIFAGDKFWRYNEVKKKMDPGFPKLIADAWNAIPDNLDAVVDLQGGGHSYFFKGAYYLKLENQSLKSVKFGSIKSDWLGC

## N-terminal domain of TIMP-2 (N-TIMP2), wild type (from UniProt P16035 27-152) (domain or fragment)
  pKi: 8.58
